{"source": "paper PMC6336799", "about": "“Novel non-phosphorylative pathway of pentose metabolism from bacteria” (Scientific Reports, 2019)", "proteins": {"B1": {"name": "C785_RS13685 (D-arabinonate dehydratase) (Herbaspirillum huttiense subsp. lycopersici) (protein)", "chain": "MKANSPIIRLNPVDDVVIARQQLISGTVLQDEGGLKVQGLIPAGHKMATRAISAGEPVKRYGQIIGTASQDIAPGQHVHTHNLAMAEFSREHHFGADVKPVDFVAEPATFMGIVRPDGRVATRNYIGVLTSVNCSATAARAIADYFRRDIHPEVLADYPNIDGVVALTHGQGCATDSQGEPLQILRRTLAGYATHPNFAAVLVVGLGCETNQISGLMESHNLKEGEYFHTFTIQGTGGTAKTVALGIEKIKKMLPKANDIKREPVSAKHLTLGLQCGGSDGYSGITANPALGAAVDLLVRHGGTAILSETPEIYGAEHLLTRRAVSPEVGEKLLARIAWWEEYCAKNDAEMNNNPSAGNKAGGLTTILEKSLGAVAKGGTTNLVDVYKYAETVTARGFVFMDTPGYDPISATGQVAGGANMICFTTGRGSAYGCAPAPSLKLATNTALWQRQEEDMDINCGEIADSNVTPQEVGERFFQMILDTASGKKTKSELHGYGQDEFVPWHIGVYT", "notes": "full length, N-terminal (His)6-tag (pQE-80L), expressed in E. coli DH5alpha, Ni-NTA; iron protein stored with Fe2+ and DTT"}, "B2": {"name": "C785_RS13710 (KDP dehydratase) (Herbaspirillum huttiense subsp. lycopersici) (protein)", "chain": "MRLIQYRDLHGQRRVGIVNGASIQVLGEVDTMRELGLLAIERHTGLERLAQLLNTDRSEDYAAILAEGRILAPLDHPDPAHCRVSGAGTTHLGSATTRDKMHRRIEGDELDKTDTQLMIEWGIAGGRPAPGTVGVQPEWFYKGDGHCIVAPGQPLPRPDFALDGGEEPEIVGLYLIDDAGCPRRLGFAIGNEFSDHVMERRNYLYQGHSKLRHCAFGPELLVGLPPAHLVGMTRIRRRGRVIWEQEFLTGPDNMCHSIENLEYHTFKYAHLLHAGDVHAHFMGAANLSFAYSVRTEDGDSIEISIPDFGAPLVNGIQHVQSNLRPGGVRQL", "notes": "full length, N-terminal (His)6-tag, expressed in Pseudomonas putida KT2442-oxyR1 (pUCP/C785_RS13710), Ni-NTA"}, "B3": {"name": "C785_RS13675 (D-KDP/L-KDF 4-dehydrogenase) (Herbaspirillum huttiense subsp. putei IAM 15032) (protein)", "chain": "MSASTGRLAGKTVLITAAAQGIGRASTELFAREGARVIATDISKTHLEELASIAGVETHLLDVTDDDAIKALVAKVGTVDVLFNCAGYVAAGNILECDDKAWDFSFNLNAKAMFHTIRAVLPGMLAKKAGSIVNIASAASSVKGVANRFAYGASKAAVVGLTKSVAADFVSQGIRCNAICPGTIESPSLNQRISTQAKETGKSEDEVRAAFVARQPMGRIGKAEEVAALALYLASDESNFTTGSIHMIDGGWSN", "notes": "full length, N-terminal (His)6-tag (pQE-80L), expressed in E. coli DH5alpha, Ni-NTA"}}, "assay_type_in_all_cases": "biochemical, Herbaspirillum huttiense", "key": {"[1]": {"substrate": "O=C(O)[C@@H](O)[C@H](O)[C@H](O)CO", "experiment": "purified protein", "conditions": "50 mM HEPES-NaOH pH 7.2, 1.5 mM NAD+ for coupling enzyme"}, "[2]": {"substrate": "O=C(O)[C@@H](O)[C@H](O)[C@H](O)[C@H](O)CO", "experiment": "purified protein", "conditions": "50 mM HEPES-NaOH pH 7.2, 1.5 mM NAD+ for coupling enzyme"}, "[3]": {"substrate": "O=C(O)C(=O)C[C@@H](O)CO", "experiment": "coupled spectrophotometric assay (alpha-KGSA dehydrogenase)", "conditions": "50 mM HEPES-NaOH pH 7.2, 1.5 mM NAD+ for coupling enzyme, 1 mM MgCl2 if necessary"}, "[4]": {"substrate": "O=C(O)C(=O)C[C@H](O)CO", "experiment": "coupled spectrophotometric assay (alpha-KGSA dehydrogenase)", "conditions": "50 mM HEPES-NaOH pH 7.2, 1.5 mM NAD+ for coupling enzyme, 1 mM MgCl2 if necessary"}, "[5]": {"substrate": "C[C@H](O)[C@@H](O)CC(=O)C(=O)O", "experiment": "spectrophotometric NADH formation", "conditions": "NAD+ as coenzyme, 50 mM Tris-HCl pH 9.0"}, "[6]": {"substrate": "O=C(O)C(=O)C[C@H](O)CO", "experiment": "spectrophotometric NADH formation", "conditions": "NAD+ as coenzyme, 50 mM Tris-HCl pH 9.0"}}, "data": [{"protein": "B1", "values": [{"measurement": "Km", "setting": "[1]", "value": "202 ± 3", "unit": "µM"}, {"measurement": "kcat", "setting": "[1]", "value": "9.03 ± 0.067", "unit": "s⁻¹"}, {"measurement": "Km", "setting": "[2]", "value": "5910 ± 90", "unit": "µM"}, {"measurement": "kcat", "setting": "[2]", "value": "0.0393 ± 0.0005", "unit": "s⁻¹"}]}, {"protein": "B2", "values": [{"measurement": "Km", "setting": "[3]", "value": "533 ± 160", "unit": "µM"}, {"measurement": "kcat", "setting": "[3]", "value": "0.202 ± 0.035", "unit": "s⁻¹"}, {"measurement": "Km", "setting": "[4]", "value": "1910 ± 200", "unit": "µM"}, {"measurement": "kcat", "setting": "[4]", "value": "0.18 ± 0.005", "unit": "s⁻¹"}]}, {"protein": "B3", "values": [{"measurement": "Km", "setting": "[5]", "value": "169 ± 3", "unit": "µM"}, {"measurement": "kcat", "setting": "[5]", "value": "32.17 ± 0.483", "unit": "s⁻¹"}, {"measurement": "Km", "setting": "[6]", "value": "1120 ± 210", "unit": "µM"}, {"measurement": "kcat", "setting": "[6]", "value": "27.17 ± 3.67", "unit": "s⁻¹"}]}]}
